Assay results from PMC12032424.

Experiments:
[1] = biological target: TDP-43 1-414 (UniProt Q13148); assay: sedimentation assay, supernatant by SDS-PAGE; conditions: reference: unmodified TDP1-414; sites S48
[2] = biological target: TDP-43 NTD, 1-80 (UniProt Q13148); assay: BS3 crosslinking, SDS-PAGE; conditions: reference: unmodified TDP1-80; sites S48
[3] = biological target: TDP-43 NTD, 1-80 (UniProt Q13148); assay: size exclusion chromatography; conditions: reference: unmodified TDP1-80; sites S48

binding against the reference [1]	binding against the reference [2]	binding against the reference [3]	Substance
weaker	–	–	TDP-43 1-414 (from UniProt Q13148) TDP1-414(pS48)
–	weaker	weaker	TDP-43 NTD, 1-80 (from UniProt Q13148) TDP1-80(pS48)
